{
  "source": "patent US20160115212A1",
  "molecular_target": "HLA class II molecules of healthy donors carrying different HLA DR alleles",
  "assay": "cell-based or functional assay",
  "data": [
    {"binder": "HSKIIIIKKGHAK", "note": "[IGFBP3 169-181]", "values": [
      {"measurement": "IFNγ producing CD4-positive T-cells, donor 1, after an additional round of stimulation", "result": "0.09 to 0.13", "unit": "%"},
      {"measurement": "IFNγ producing CD4-positive T-cells, donor 1, after the third stimulation", "result": "0.05 to 0.1", "unit": "%"},
      {"measurement": "maximal frequency of IFNγ producing CD4^+T-cells, donor 2", "result": 0.05, "unit": "%"},
      {"measurement": "maximal frequency of IFNγ producing CD4^+T-cells, donor 3", "result": 0.07, "unit": "%"}
    ]}
  ]
}
